Experimental data as given in US20140213513A1 (Sanofi, priority 2012, published 2014).
*1 amine or outer side, *2 acyl side, *3 side chain or, on linkers, in order; H or OH if unused. Where no end group is shown, it is not given here. Side-chain parts run from the residue outwards. [ ]: non-standard residue; d: D form. The star is where a group is joined. γGlu = O=C(O)[C@H](CCC(=O)[*:2])N[*:1]; Stearoyl = CCCCCCCCCCCCCCCCCC(=O)*; Palmitoyl = CCCCCCCCCCCCCCCC(=O)*; Aib = CC(C)(N)C(=O)O

T1: human GIP receptor (human, UniProt P48546 22-466)
T1 sequence (looked up): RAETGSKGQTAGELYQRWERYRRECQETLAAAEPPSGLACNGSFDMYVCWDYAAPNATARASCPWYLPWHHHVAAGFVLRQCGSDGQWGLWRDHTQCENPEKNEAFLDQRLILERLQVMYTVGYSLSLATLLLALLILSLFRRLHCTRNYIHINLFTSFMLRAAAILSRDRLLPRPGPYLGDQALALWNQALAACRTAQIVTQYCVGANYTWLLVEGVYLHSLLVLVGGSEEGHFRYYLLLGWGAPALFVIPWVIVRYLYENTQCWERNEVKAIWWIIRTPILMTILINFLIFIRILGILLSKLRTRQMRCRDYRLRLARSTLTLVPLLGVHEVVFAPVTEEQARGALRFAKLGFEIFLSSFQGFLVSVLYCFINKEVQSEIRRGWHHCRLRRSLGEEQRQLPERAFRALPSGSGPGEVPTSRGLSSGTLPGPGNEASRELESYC

B1: exendin-4 peptide analogue SEQ ID NO: 18 (peptide)
peptide: Y[Aib]HGTFTSDLSIQK([γGlu-Stearoyl])EKRAA[Aib]EFIEWLKNTGPSSGAPPPS-NH2
modifications: N-terminus assumed
SMILES: CCCCCCCCCCCCCCCCCC(=O)N[C@@H](CCC(=O)NCCCC[C@H](NC(=O)[C@H](CCC(N)=O)NC(=O)[C@@H](NC(=O)[C@H](CO)NC(=O)[C@H](CC(C)C)NC(=O)[C@H](CC(=O)O)NC(=O)[C@H](CO)NC(=O)[C@@H](NC(=O)[C@H](Cc1ccccc1)NC(=O)[C@@H](NC(=O)CNC(=O)[C@H](Cc1c[nH]cn1)NC(=O)C(C)(C)NC(=O)[C@@H](N)Cc1ccc(O)cc1)[C@@H](C)O)[C@@H](C)O)[C@@H](C)CC)C(=O)N[C@@H](CCC(=O)O)C(=O)N[C@@H](CCCCN)C(=O)N[C@@H](CCCNC(=N)N)C(=O)N[C@@H](C)C(=O)N[C@@H](C)C(=O)NC(C)(C)C(=O)N[C@@H](CCC(=O)O)C(=O)N[C@@H](Cc1ccccc1)C(=O)N[C@H](C(=O)N[C@@H](CCC(=O)O)C(=O)N[C@@H](Cc1c[nH]c2ccccc12)C(=O)N[C@@H](CC(C)C)C(=O)N[C@@H](CCCCN)C(=O)N[C@@H](CC(N)=O)C(=O)N[C@H](C(=O)NCC(=O)N1CCC[C@H]1C(=O)N[C@@H](CO)C(=O)N[C@@H](CO)C(=O)NCC(=O)N[C@@H](C)C(=O)N1CCC[C@H]1C(=O)N1CCC[C@H]1C(=O)N1CCC[C@H]1C(=O)N[C@@H](CO)C(N)=O)[C@@H](C)O)[C@@H](C)CC)C(=O)O
B2: exendin-4 peptide analogue SEQ ID NO: 21 (peptide)
peptide: Y[Aib]QGTFTSDLSIQK(Palmitoyl)EQRAA[Aib]EFIEWLKNTGPSSGAPPPS-NH2
modifications: N-terminus assumed
SMILES: CCCCCCCCCCCCCCCC(=O)NCCCC[C@H](NC(=O)[C@H](CCC(N)=O)NC(=O)[C@@H](NC(=O)[C@H](CO)NC(=O)[C@H](CC(C)C)NC(=O)[C@H](CC(=O)O)NC(=O)[C@H](CO)NC(=O)[C@@H](NC(=O)[C@H](Cc1ccccc1)NC(=O)[C@@H](NC(=O)CNC(=O)[C@H](CCC(N)=O)NC(=O)C(C)(C)NC(=O)[C@@H](N)Cc1ccc(O)cc1)[C@@H](C)O)[C@@H](C)O)[C@@H](C)CC)C(=O)N[C@@H](CCC(=O)O)C(=O)N[C@@H](CCC(N)=O)C(=O)N[C@@H](CCCNC(=N)N)C(=O)N[C@@H](C)C(=O)N[C@@H](C)C(=O)NC(C)(C)C(=O)N[C@@H](CCC(=O)O)C(=O)N[C@@H](Cc1ccccc1)C(=O)N[C@H](C(=O)N[C@@H](CCC(=O)O)C(=O)N[C@@H](Cc1c[nH]c2ccccc12)C(=O)N[C@@H](CC(C)C)C(=O)N[C@@H](CCCCN)C(=O)N[C@@H](CC(N)=O)C(=O)N[C@H](C(=O)NCC(=O)N1CCC[C@H]1C(=O)N[C@@H](CO)C(=O)N[C@@H](CO)C(=O)NCC(=O)N[C@@H](C)C(=O)N1CCC[C@H]1C(=O)N1CCC[C@H]1C(=O)N1CCC[C@H]1C(=O)N[C@@H](CO)C(N)=O)[C@@H](C)O)[C@@H](C)CC
B3: exendin-4 peptide analogue SEQ ID NO: 19 (peptide)
peptide: Y[Aib]QGTFTSDLSIQK([γGlu-Palmitoyl])EKRLA[Aib]EFIEWLKNTGPSSGAPPPS-NH2
modifications: N-terminus assumed
SMILES: CCCCCCCCCCCCCCCC(=O)N[C@@H](CCC(=O)NCCCC[C@H](NC(=O)[C@H](CCC(N)=O)NC(=O)[C@@H](NC(=O)[C@H](CO)NC(=O)[C@H](CC(C)C)NC(=O)[C@H](CC(=O)O)NC(=O)[C@H](CO)NC(=O)[C@@H](NC(=O)[C@H](Cc1ccccc1)NC(=O)[C@@H](NC(=O)CNC(=O)[C@H](CCC(N)=O)NC(=O)C(C)(C)NC(=O)[C@@H](N)Cc1ccc(O)cc1)[C@@H](C)O)[C@@H](C)O)[C@@H](C)CC)C(=O)N[C@@H](CCC(=O)O)C(=O)N[C@@H](CCCCN)C(=O)N[C@@H](CCCNC(=N)N)C(=O)N[C@@H](CC(C)C)C(=O)N[C@@H](C)C(=O)NC(C)(C)C(=O)N[C@@H](CCC(=O)O)C(=O)N[C@@H](Cc1ccccc1)C(=O)N[C@H](C(=O)N[C@@H](CCC(=O)O)C(=O)N[C@@H](Cc1c[nH]c2ccccc12)C(=O)N[C@@H](CC(C)C)C(=O)N[C@@H](CCCCN)C(=O)N[C@@H](CC(N)=O)C(=O)N[C@H](C(=O)NCC(=O)N1CCC[C@H]1C(=O)N[C@@H](CO)C(=O)N[C@@H](CO)C(=O)NCC(=O)N[C@@H](C)C(=O)N1CCC[C@H]1C(=O)N1CCC[C@H]1C(=O)N1CCC[C@H]1C(=O)N[C@@H](CO)C(N)=O)[C@@H](C)O)[C@@H](C)CC)C(=O)O
B4: exendin-4 peptide analogue SEQ ID NO: 16 (peptide)
peptide: Y[Aib]EGTFTSDLSIQK([γGlu-Stearoyl])ESKAA[Aib]EFIEWLKAGGPSSGAPPPSK-NH2
modifications: N-terminus assumed
SMILES: CCCCCCCCCCCCCCCCCC(=O)N[C@@H](CCC(=O)NCCCC[C@H](NC(=O)[C@H](CCC(N)=O)NC(=O)[C@@H](NC(=O)[C@H](CO)NC(=O)[C@H](CC(C)C)NC(=O)[C@H](CC(=O)O)NC(=O)[C@H](CO)NC(=O)[C@@H](NC(=O)[C@H](Cc1ccccc1)NC(=O)[C@@H](NC(=O)CNC(=O)[C@H](CCC(=O)O)NC(=O)C(C)(C)NC(=O)[C@@H](N)Cc1ccc(O)cc1)[C@@H](C)O)[C@@H](C)O)[C@@H](C)CC)C(=O)N[C@@H](CCC(=O)O)C(=O)N[C@@H](CO)C(=O)N[C@@H](CCCCN)C(=O)N[C@@H](C)C(=O)N[C@@H](C)C(=O)NC(C)(C)C(=O)N[C@@H](CCC(=O)O)C(=O)N[C@@H](Cc1ccccc1)C(=O)N[C@H](C(=O)N[C@@H](CCC(=O)O)C(=O)N[C@@H](Cc1c[nH]c2ccccc12)C(=O)N[C@@H](CC(C)C)C(=O)N[C@@H](CCCCN)C(=O)N[C@@H](C)C(=O)NCC(=O)NCC(=O)N1CCC[C@H]1C(=O)N[C@@H](CO)C(=O)N[C@@H](CO)C(=O)NCC(=O)N[C@@H](C)C(=O)N1CCC[C@H]1C(=O)N1CCC[C@H]1C(=O)N1CCC[C@H]1C(=O)N[C@@H](CO)C(=O)N[C@@H](CCCCN)C(N)=O)[C@@H](C)CC)C(=O)O
B5: exendin-4 peptide analogue SEQ ID NO: 20 (peptide)
peptide: Y[Aib]EGTFTSDLSIQK([γGlu-Palmitoyl])EKRAA[Aib]EFIEWLKRAGPSSGAPPPS-NH2
modifications: N-terminus assumed
SMILES: CCCCCCCCCCCCCCCC(=O)N[C@@H](CCC(=O)NCCCC[C@H](NC(=O)[C@H](CCC(N)=O)NC(=O)[C@@H](NC(=O)[C@H](CO)NC(=O)[C@H](CC(C)C)NC(=O)[C@H](CC(=O)O)NC(=O)[C@H](CO)NC(=O)[C@@H](NC(=O)[C@H](Cc1ccccc1)NC(=O)[C@@H](NC(=O)CNC(=O)[C@H](CCC(=O)O)NC(=O)C(C)(C)NC(=O)[C@@H](N)Cc1ccc(O)cc1)[C@@H](C)O)[C@@H](C)O)[C@@H](C)CC)C(=O)N[C@@H](CCC(=O)O)C(=O)N[C@@H](CCCCN)C(=O)N[C@@H](CCCNC(=N)N)C(=O)N[C@@H](C)C(=O)N[C@@H](C)C(=O)NC(C)(C)C(=O)N[C@@H](CCC(=O)O)C(=O)N[C@@H](Cc1ccccc1)C(=O)N[C@H](C(=O)N[C@@H](CCC(=O)O)C(=O)N[C@@H](Cc1c[nH]c2ccccc12)C(=O)N[C@@H](CC(C)C)C(=O)N[C@@H](CCCCN)C(=O)N[C@@H](CCCNC(=N)N)C(=O)N[C@@H](C)C(=O)NCC(=O)N1CCC[C@H]1C(=O)N[C@@H](CO)C(=O)N[C@@H](CO)C(=O)NCC(=O)N[C@@H](C)C(=O)N1CCC[C@H]1C(=O)N1CCC[C@H]1C(=O)N1CCC[C@H]1C(=O)N[C@@H](CO)C(N)=O)[C@@H](C)CC)C(=O)O
B6: exendin-4 peptide analogue SEQ ID NO: 17 (peptide)
peptide: Y[Aib]EGTFTSDLSKQK([γGlu-Palmitoyl])EKEAA[Aib]EFIEWLKAGGPSSGAPPPS-NH2
modifications: N-terminus assumed
SMILES: CCCCCCCCCCCCCCCC(=O)N[C@@H](CCC(=O)NCCCC[C@H](NC(=O)[C@H](CCC(N)=O)NC(=O)[C@H](CCCCN)NC(=O)[C@H](CO)NC(=O)[C@H](CC(C)C)NC(=O)[C@H](CC(=O)O)NC(=O)[C@H](CO)NC(=O)[C@@H](NC(=O)[C@H](Cc1ccccc1)NC(=O)[C@@H](NC(=O)CNC(=O)[C@H](CCC(=O)O)NC(=O)C(C)(C)NC(=O)[C@@H](N)Cc1ccc(O)cc1)[C@@H](C)O)[C@@H](C)O)C(=O)N[C@@H](CCC(=O)O)C(=O)N[C@@H](CCCCN)C(=O)N[C@@H](CCC(=O)O)C(=O)N[C@@H](C)C(=O)N[C@@H](C)C(=O)NC(C)(C)C(=O)N[C@@H](CCC(=O)O)C(=O)N[C@@H](Cc1ccccc1)C(=O)N[C@H](C(=O)N[C@@H](CCC(=O)O)C(=O)N[C@@H](Cc1c[nH]c2ccccc12)C(=O)N[C@@H](CC(C)C)C(=O)N[C@@H](CCCCN)C(=O)N[C@@H](C)C(=O)NCC(=O)NCC(=O)N1CCC[C@H]1C(=O)N[C@@H](CO)C(=O)N[C@@H](CO)C(=O)NCC(=O)N[C@@H](C)C(=O)N1CCC[C@H]1C(=O)N1CCC[C@H]1C(=O)N1CCC[C@H]1C(=O)N[C@@H](CO)C(N)=O)[C@@H](C)CC)C(=O)O

Biological target: human GLP-1 receptor (human, UniProt P43220 24-463)
Assay: cell-based or functional assay

Binder	EC50 hGLP-1 R
B1	0.0183 nM
B2	0.037 nM
B3	0.0085 nM
B4	0.007 nM
B5	0.0082 nM
B6	0.0052 nM

Biological target: T1, human GIP receptor
Assay: cell-based or functional assay

Binder	EC50 hGIP R
B1	0.0095 nM
B2	0.189 nM
B3	0.0915 nM
B4	0.0156 nM
B5	0.0163 nM
B6	0.0083 nM

Biological target: human glucagon receptor (human, UniProt P47871 26-477)
Sequence (P47871 26-477): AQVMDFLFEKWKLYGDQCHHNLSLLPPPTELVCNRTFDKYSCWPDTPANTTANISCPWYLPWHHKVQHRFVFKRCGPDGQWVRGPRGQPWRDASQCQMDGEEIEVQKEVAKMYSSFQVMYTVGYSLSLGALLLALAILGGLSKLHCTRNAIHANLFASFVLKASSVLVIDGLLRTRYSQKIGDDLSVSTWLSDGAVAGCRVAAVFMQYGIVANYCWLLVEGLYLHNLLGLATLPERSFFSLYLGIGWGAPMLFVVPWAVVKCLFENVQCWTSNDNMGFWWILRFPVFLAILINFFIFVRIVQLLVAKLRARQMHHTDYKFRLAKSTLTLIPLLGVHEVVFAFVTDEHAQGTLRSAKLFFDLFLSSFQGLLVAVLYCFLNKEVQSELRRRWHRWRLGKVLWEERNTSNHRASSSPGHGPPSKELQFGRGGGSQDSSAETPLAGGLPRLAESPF
Assay: cell-based or functional assay

Binder	EC50 hGLUC R
B1	0.0095 nM
B2	0.674 nM
B3	0.137 nM
B4	17 nM
B5	18.2 nM
B6	21 nM
